US7049080B2, “Process for detecting serine/threonine kinase activity” (priority 2000, dated 2006)

Experiments:
MKK7 [1] = biological target: T1, MKK7 (Homo sapiens, UniProt O14733); details: when max. activated; cited from earlier work
T1 construct: purchased Upstate Biotech 14-366
T1 sequence (O14733 1-419): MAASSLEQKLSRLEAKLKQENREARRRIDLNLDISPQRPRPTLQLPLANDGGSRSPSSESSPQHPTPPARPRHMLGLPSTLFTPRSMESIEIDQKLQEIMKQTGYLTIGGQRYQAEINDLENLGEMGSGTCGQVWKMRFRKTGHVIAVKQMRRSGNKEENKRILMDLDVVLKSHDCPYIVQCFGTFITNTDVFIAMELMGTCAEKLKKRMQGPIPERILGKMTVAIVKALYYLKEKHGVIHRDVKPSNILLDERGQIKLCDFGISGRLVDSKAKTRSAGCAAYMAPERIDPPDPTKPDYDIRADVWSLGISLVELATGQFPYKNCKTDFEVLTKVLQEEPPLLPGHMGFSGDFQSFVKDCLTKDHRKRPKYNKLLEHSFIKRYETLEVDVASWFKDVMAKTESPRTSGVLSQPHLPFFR

MKK7 [2] = biological target: T1, MKK7; experiment: FP measurements of MKK7 activity, time course (Example 7); type: biochemical; details: 100 μM P1°
Method: Fluorescence Polarization measurements of MKK7 activity (time course): In this experiment, the time course has been investigated at P1^∘ substrate concentrations of 100 μM. The reactions were stopped with EDTA. The following reagents have been used (the compositions of the buffers and specifications of the reagents are explained in more detail later on): […] After addition of MKK7, the enzyme reactions were performed in Nunc chambers at RT. The samples were continuously measured at different time points by Fluorescence polarization.

MKK7 [3] = biological target: T1, MKK7; experiment: FP measurements of MKK7 activity, time course, optimized conditions (Example 8); type: biochemical
Method: Fluorescence Polarization measurements of MKK7 activity (time course): In this experiment the assay conditions have been optimized. The reactions were stopped with EDTA. […] The following reagents have been used (explanations later on): […] The enzyme reactions were performed in Eppendorf reaction tubes at RT. Aliquots of 20 μl were withdrawn from the reactions at different time points and mixed with 10 μl STOP solution.

B1: MKK7: MKK7 kinase, supplier Upstate Biotech cat. no. 14-366 (protein, UniProt O14733 2-419, looked up)
Dual specificity …: AASSLEQKLSRLEAKLKQENREARRRIDLNLDISPQRPRPTLQLPLANDGGSRSPSSESSPQHPTPPARPRHMLGLPSTLFTPRSMESIEIDQKLQEIMKQTGYLTIGGQRYQAEINDLENLGEMGSGTCGQVWKMRFRKTGHVIAVKQMRRSGNKEENKRILMDLDVVLKSHDCPYIVQCFGTFITNTDVFIAMELMGTCAEKLKKRMQGPIPERILGKMTVAIVKALYYLKEKHGVIHRDVKPSNILLDERGQIKLCDFGISGRLVDSKAKTRSAGCAAYMAPERIDPPDPTKPDYDIRADVWSLGISLVELATGQFPYKNCKTDFEVLTKVLQEEPPLLPGHMGFSGDFQSFVKDCLTKDHRKRPKYNKLLEHSFIKRYETLEVDVASWFKDVMAKTESPRTSGVLSQPHLPFFR
Question: For B1, which Specific activity (MKK7 [1]) is on record?
Answer: The Specific activity was “Approximately 20 Units/mg”.

Question: What about the “Fluorescence Polarization” value (MKK7 [2]; MKK7 0.005 μM, 0 h) of the same molecule?
Answer: The value was 131.5 mP.

Question: What about the “Fluorescence Polarization” value (MKK7 [2]; MKK7 0.005 μM, 0.5 h) of the same molecule?
Answer: The value was 137.4 mP.

Question: What about the “Fluorescence Polarization” value (MKK7 [2]; MKK7 0.005 μM, 1 h) of the same molecule?
Answer: The value was 136.8 mP.

Question: What about the “Fluorescence Polarization” value (MKK7 [2]; MKK7 0.005 μM, 1.5 h) of the same molecule?
Answer: Its value is 136.9 mP.

Question: And the “Fluorescence Polarization” value (MKK7 [2]; MKK7 0.005 μM, 3 h)?
Answer: Its value is 138.1 mP.

Question: What about the “Fluorescence Polarization” value (MKK7 [2]; MKK7 0.02 μM, 0 h) of the same molecule?
Answer: Its value is 135.4 mP.

Question: And the “Fluorescence Polarization” value (MKK7 [2]; MKK7 0.02 μM, 0.5 h)?
Answer: The value was 140.3 mP.

Question: What about the “Fluorescence Polarization” value (MKK7 [2]; MKK7 0.02 μM, 1 h) of the same molecule?
Answer: Its value is 140.9 mP.

Question: What about the “Fluorescence Polarization” value (MKK7 [2]; MKK7 0.02 μM, 1.5 h) of the same molecule?
Answer: Its value is 139.7 mP.

Question: What about the “Fluorescence Polarization” value (MKK7 [2]; MKK7 0.02 μM, 3 h) of the same molecule?
Answer: Its value is 140.0 mP.

Question: What about the “Fluorescence Polarization” value (MKK7 [2]; MKK7 0.08 μM, 0 h) of the same molecule?
Answer: Its value is 133.5 mP.

Question: And the “Fluorescence Polarization” value (MKK7 [2]; MKK7 0.08 μM, 0.5 h)?
Answer: Its value is 137.6 mP.

Question: And the “Fluorescence Polarization” value (MKK7 [2]; MKK7 0.08 μM, 1 h)?
Answer: Its value is 135.8 mP.

Question: And the “Fluorescence Polarization” value (MKK7 [2]; MKK7 0.08 μM, 1.5 h)?
Answer: Its value is 128.4 mP.

Question: What about the “Fluorescence Polarization” value (MKK7 [2]; MKK7 0.08 μM, 3 h) of the same molecule?
Answer: The value was 115.2 mP.

Question: What about the “Fluorescence Polarization” value (MKK7 [2]; MKK7 0.2 μM, 0 h) of the same molecule?
Answer: Its value is 135.3 mP.

Question: And the “Fluorescence Polarization” value (MKK7 [2]; MKK7 0.2 μM, 0.5 h)?
Answer: The value was 132.1 mP.

Question: What about the “Fluorescence Polarization” value (MKK7 [2]; MKK7 0.2 μM, 1 h) of the same molecule?
Answer: Its value is 121.9 mP.

Question: And the “Fluorescence Polarization” value (MKK7 [2]; MKK7 0.2 μM, 1.5 h)?
Answer: The value was 113.8 mP.

Question: And the “Fluorescence Polarization” value (MKK7 [2]; MKK7 0.2 μM, 3 h)?
Answer: Its value is 104.7 mP.

Question: What about the “Fluorescence Polarization” value (MKK7 [2]; MKK7 0.5 μM, 0 h) of the same molecule?
Answer: The value was 135.3 mP.

Question: And the “Fluorescence Polarization” value (MKK7 [2]; MKK7 0.5 μM, 0.5 h)?
Answer: The value was 125.5 mP.

Question: And the “Fluorescence Polarization” value (MKK7 [2]; MKK7 0.5 μM, 1 h)?
Answer: The value was 115.3 mP.

Question: And the “Fluorescence Polarization” value (MKK7 [2]; MKK7 0.5 μM, 1.5 h)?
Answer: The value was 108.8 mP.

Question: What about the “Fluorescence Polarization” value (MKK7 [2]; MKK7 0.5 μM, 3 h) of the same molecule?
Answer: Its value is 106.6 mP.

Question: And the “Fluorescence Polarization” value (MKK7 [2]; MKK7 1.0 μM, 0 h)?
Answer: The value was 135.7 mP.

Question: What about the “Fluorescence Polarization” value (MKK7 [2]; MKK7 1.0 μM, 0.5 h) of the same molecule?
Answer: Its value is 119.6 mP.

Question: And the “Fluorescence Polarization” value (MKK7 [2]; MKK7 1.0 μM, 1 h)?
Answer: The value was 112.2 mP.

Question: And the “Fluorescence Polarization” value (MKK7 [2]; MKK7 1.0 μM, 1.5 h)?
Answer: The value was 105.3 mP.

Question: And the “Fluorescence Polarization” value (MKK7 [2]; MKK7 1.0 μM, 3 h)?
Answer: Its value is 108.4 mP.

Question: What about the “Fluorescence Polarization” value (MKK7 [3]; NEB ab in STOP sol., MKK7 0.04 μM, 0 h) of the same molecule?
Answer: Its value is 147.2 mP.

Question: What about the “Fluorescence Polarization” value (MKK7 [3]; NEB ab in STOP sol., MKK7 0.04 μM, 0.5 h) of the same molecule?
Answer: Its value is 141.5 mP.

Question: What about the “Fluorescence Polarization” value (MKK7 [3]; NEB ab in STOP sol., MKK7 0.04 μM, 1 h) of the same molecule?
Answer: The value was 140.2 mP.

Question: What about the “Fluorescence Polarization” value (MKK7 [3]; NEB ab in STOP sol., MKK7 0.04 μM, 1.5 h) of the same molecule?
Answer: The value was 135.8 mP.

Question: What about the “Fluorescence Polarization” value (MKK7 [3]; NEB ab in STOP sol., MKK7 0.04 μM, 2 h) of the same molecule?
Answer: The value was 134.2 mP.

Question: What about the “Fluorescence Polarization” value (MKK7 [3]; NEB ab in STOP sol., MKK7 0.04 μM, 3 h) of the same molecule?
Answer: Its value is 138.2 mP.

Question: And the “Fluorescence Polarization” value (MKK7 [3]; NEB ab in STOP sol., MKK7 0.08 μM, 0 h)?
Answer: The value was 143.3 mP.

Question: What about the “Fluorescence Polarization” value (MKK7 [3]; NEB ab in STOP sol., MKK7 0.08 μM, 0.5 h) of the same molecule?
Answer: The value was 139.1 mP.

Question: And the “Fluorescence Polarization” value (MKK7 [3]; NEB ab in STOP sol., MKK7 0.08 μM, 1 h)?
Answer: Its value is 133.6 mP.

Question: And the “Fluorescence Polarization” value (MKK7 [3]; NEB ab in STOP sol., MKK7 0.08 μM, 1.5 h)?
Answer: The value was 122.1 mP.

Question: And the “Fluorescence Polarization” value (MKK7 [3]; NEB ab in STOP sol., MKK7 0.08 μM, 2 h)?
Answer: The value was 115.8 mP.

Question: What about the “Fluorescence Polarization” value (MKK7 [3]; NEB ab in STOP sol., MKK7 0.08 μM, 3 h) of the same molecule?
Answer: The value was 125.0 mP.

Question: What about the “Fluorescence Polarization” value (MKK7 [3]; NEB ab in STOP sol., MKK7 0.2 μM, 0 h) of the same molecule?
Answer: Its value is 148.2 mP.

Question: And the “Fluorescence Polarization” value (MKK7 [3]; NEB ab in STOP sol., MKK7 0.2 μM, 0.5 h)?
Answer: The value was 130.2 mP.

Question: What about the “Fluorescence Polarization” value (MKK7 [3]; NEB ab in STOP sol., MKK7 0.2 μM, 1 h) of the same molecule?
Answer: Its value is 114.0 mP.

Question: What about the “Fluorescence Polarization” value (MKK7 [3]; NEB ab in STOP sol., MKK7 0.2 μM, 1.5 h) of the same molecule?
Answer: Its value is 102.8 mP.

Question: And the “Fluorescence Polarization” value (MKK7 [3]; NEB ab in STOP sol., MKK7 0.2 μM, 2 h)?
Answer: The value was 99.2 mP.

Question: What about the “Fluorescence Polarization” value (MKK7 [3]; NEB ab in STOP sol., MKK7 0.2 μM, 3 h) of the same molecule?
Answer: Its value is 119.4 mP.

Question: What about the “Fluorescence Polarization” value (MKK7 [3]; NEB ab in reaction, MKK7 0.04 μM, 0 h) of the same molecule?
Answer: The value was 150.0 mP.

Question: And the “Fluorescence Polarization” value (MKK7 [3]; NEB ab in reaction, MKK7 0.04 μM, 0.5 h)?
Answer: The value was 128.5 mP.

Question: What about the “Fluorescence Polarization” value (MKK7 [3]; NEB ab in reaction, MKK7 0.04 μM, 1 h) of the same molecule?
Answer: Its value is 125.7 mP.

Question: And the “Fluorescence Polarization” value (MKK7 [3]; NEB ab in reaction, MKK7 0.04 μM, 1.5 h)?
Answer: Its value is 112.9 mP.

Question: What about the “Fluorescence Polarization” value (MKK7 [3]; NEB ab in reaction, MKK7 0.04 μM, 2 h) of the same molecule?
Answer: Its value is 109.7 mP.

Question: And the “Fluorescence Polarization” value (MKK7 [3]; NEB ab in reaction, MKK7 0.04 μM, 3 h)?
Answer: The value was 78.6 mP.

Question: What about the “Fluorescence Polarization” value (MKK7 [3]; NEB ab in reaction, MKK7 0.08 μM, 0 h) of the same molecule?
Answer: The value was 138.5 mP.

Question: And the “Fluorescence Polarization” value (MKK7 [3]; NEB ab in reaction, MKK7 0.08 μM, 0.5 h)?
Answer: Its value is 122.5 mP.

Question: And the “Fluorescence Polarization” value (MKK7 [3]; NEB ab in reaction, MKK7 0.08 μM, 1 h)?
Answer: The value was 105.9 mP.

Question: And the “Fluorescence Polarization” value (MKK7 [3]; NEB ab in reaction, MKK7 0.08 μM, 1.5 h)?
Answer: The value was 86.4 mP.

Question: And the “Fluorescence Polarization” value (MKK7 [3]; NEB ab in reaction, MKK7 0.08 μM, 2 h)?
Answer: The value was 84.5 mP.

Question: And the “Fluorescence Polarization” value (MKK7 [3]; NEB ab in reaction, MKK7 0.08 μM, 3 h)?
Answer: The value was 65.0 mP.

Question: What about the “Fluorescence Polarization” value (MKK7 [3]; NEB ab in reaction, MKK7 0.2 μM, 0 h) of the same molecule?
Answer: Its value is 137.2 mP.

Question: And the “Fluorescence Polarization” value (MKK7 [3]; NEB ab in reaction, MKK7 0.2 μM, 0.5 h)?
Answer: The value was 101.4 mP.

Question: What about the “Fluorescence Polarization” value (MKK7 [3]; NEB ab in reaction, MKK7 0.2 μM, 1 h) of the same molecule?
Answer: The value was 83.1 mP.

Question: What about the “Fluorescence Polarization” value (MKK7 [3]; NEB ab in reaction, MKK7 0.2 μM, 1.5 h) of the same molecule?
Answer: Its value is 78.1 mP.

Question: And the “Fluorescence Polarization” value (MKK7 [3]; NEB ab in reaction, MKK7 0.2 μM, 2 h)?
Answer: Its value is 72.1 mP.

Question: What about the “Fluorescence Polarization” value (MKK7 [3]; NEB ab in reaction, MKK7 0.2 μM, 3 h) of the same molecule?
Answer: Its value is 59.4 mP.
